One series has as its target T1, ABCA1 (Mus musculus, UniProt P41233).
T1 construct: treated (18 h) with a cAMP analog to induce ABCA1 protein expression; endogenous in cells; host or cells: J774 macrophages
Briefly: ABCA1-dependent cholesterol efflux from [3H]cholesterol-labeled J774 macrophages with and without cAMP. It counts as cell-based. The settings on record: J774, cAMP vs no cAMP; 10 μg/ml lipid-free.

A further series relates to Wistar rats. The series is described as follows: High-dose IV toxicity of ATI-5261 in rats (plasma ALT, AST, TG, cholesterol). Format: in vivo, rat. The method, then: Peptides or peptidomeimetics of the invention can be evaluated for toxicity using known assays. Examples of such assays are illustrated in the Examples section. Toxicity is typically assayed in a rat, rabbit, mouse, monkey or dog model. In an illustrative assay such as that described in Example 1, a peptide is administered intravenously using a rabbit or rat model at doses of 3, 30, and 300 mg/kg and vehicle alone is also administered at 48 hour intervals for a total of four injections. Safety chemistry panels including plasma alanine aminotransferase (ALT), aspartate amino transferase (AST), and creatine kinase (CK) can then be determined in the blood. The presence of elevated levels of these enzymes in the blood compared to control normal values is indicative of toxicity. A peptide of the invention is typically considered to be non-toxic or to have little toxicity, when the results using the highest dose, 300 mg/kg in this illustrative assay, are equivalent (fall within the standard deviation) of the values measured for the control animals that received vehicle alone, or are no more than 2 or 3 times background obtained with vehicle alone. In some embodiments, a toxicity assay is performed where the toxicity of a peptide of the invention is compared to that to ATI-5261. […]
Cytotoxicity of an HDL mimetic peptide ATI-5261 at high doses was evaluated in rats and rabbits (FIG. 1). […]

The next series relates to human plasma. The series is described as follows: Cholesterol efflux activity of human plasma treated with lipid-free peptide (J774 cells). It counts as cell-based. As to conditions: plasma + 300 μg/ml peptide 5 min 4° C., diluted to 1%, cAMP treated J774. Here is the method: (FIG. 33). To test whether CS6253 exerts anti-atherogenic effects in a biological milieu, human plasma was exposed (5 min) to lipid-free peptide. Interactions of CS6253 with HDL in plasma and activity of plasma to stimulate cholesterol efflux was assessed; the latter using J774 macrophages labeled with [3H]cholesterol. Panel A—Cholesterol efflux activity of plasma treated with lipid-free peptides. Human plasma was incubated with 300 μg/ml peptides for 5 minutes (4° C.), diluted to 1% in serum-free RPMI-1640 culture medium and immediately added to [3H]cholesterol-labeled J774 cells. […] Panel B—Induction of preβ HDL upon treatment of human plasma with CS6253. Plasma was exposed to a small amount of peptide relative to endogenous apoA-I (1:10 mole ratio, respectively) and formation of preβ HDL assessed by 2D non-denaturing gradient gel electrophoresis (NDGGE) and western blot analysis. […] The results are consistent with the production of authentic preβ HDL particles composed entirely of endogenous apoA-I.
To test whether T6991-2 exerts anti-atherogenic effects in a biological milieu, human plasma was exposed (5 min) to lipid-free peptide. Interactions of T6991-2 with HDL in plasma and activity of plasma to stimulate cholesterol efflux was assessed using J774 macrophages labeled with [3H]cholesterol. Panel A—Cholesterol efflux activity of plasma treated with lipid-free peptides. […]

The next series has as its target T2, ABCG1 (Homo sapiens, UniProt P45844).
T2 construct: expressed in transfected cells; host or cells: BHK cells, stably transfected
The series is described as follows: ABCG1 mediated cholesterol efflux from BHK cells stably transfected with ABCG1. As to conditions: BHK-ABCG1 vs mock, 50 μg peptide/ml, time-course and 4 h. It counts as cell-based. The text has this: To further evaluate potential anti-atherogenic mechanisms of CS6253, BHK cells stably transfected with ABCG1 and mock-transfected control cells were labeled with [3H]cholesterol and used in efflux experiments. […] Panel A—Time-course for ABCG1 mediated cholesterol efflux from cells to lipid-free CS6253 peptide or CS6253:POPC complexes. […] Panel B—Comparison between CS6253 and ATI-5261 in mediating cellular cholesterol efflux via ABCG1. [3H]cholesterol labeled BHK cells (ABCG1 vs. mock transfected; left bars, control BHK, right bars, G1-BHK) were incubated with either lipid-free peptide or peptides formulated with POPC.

“Also recorded” adds a separate entry of the source.

T1 sequence (P41233 whole entry): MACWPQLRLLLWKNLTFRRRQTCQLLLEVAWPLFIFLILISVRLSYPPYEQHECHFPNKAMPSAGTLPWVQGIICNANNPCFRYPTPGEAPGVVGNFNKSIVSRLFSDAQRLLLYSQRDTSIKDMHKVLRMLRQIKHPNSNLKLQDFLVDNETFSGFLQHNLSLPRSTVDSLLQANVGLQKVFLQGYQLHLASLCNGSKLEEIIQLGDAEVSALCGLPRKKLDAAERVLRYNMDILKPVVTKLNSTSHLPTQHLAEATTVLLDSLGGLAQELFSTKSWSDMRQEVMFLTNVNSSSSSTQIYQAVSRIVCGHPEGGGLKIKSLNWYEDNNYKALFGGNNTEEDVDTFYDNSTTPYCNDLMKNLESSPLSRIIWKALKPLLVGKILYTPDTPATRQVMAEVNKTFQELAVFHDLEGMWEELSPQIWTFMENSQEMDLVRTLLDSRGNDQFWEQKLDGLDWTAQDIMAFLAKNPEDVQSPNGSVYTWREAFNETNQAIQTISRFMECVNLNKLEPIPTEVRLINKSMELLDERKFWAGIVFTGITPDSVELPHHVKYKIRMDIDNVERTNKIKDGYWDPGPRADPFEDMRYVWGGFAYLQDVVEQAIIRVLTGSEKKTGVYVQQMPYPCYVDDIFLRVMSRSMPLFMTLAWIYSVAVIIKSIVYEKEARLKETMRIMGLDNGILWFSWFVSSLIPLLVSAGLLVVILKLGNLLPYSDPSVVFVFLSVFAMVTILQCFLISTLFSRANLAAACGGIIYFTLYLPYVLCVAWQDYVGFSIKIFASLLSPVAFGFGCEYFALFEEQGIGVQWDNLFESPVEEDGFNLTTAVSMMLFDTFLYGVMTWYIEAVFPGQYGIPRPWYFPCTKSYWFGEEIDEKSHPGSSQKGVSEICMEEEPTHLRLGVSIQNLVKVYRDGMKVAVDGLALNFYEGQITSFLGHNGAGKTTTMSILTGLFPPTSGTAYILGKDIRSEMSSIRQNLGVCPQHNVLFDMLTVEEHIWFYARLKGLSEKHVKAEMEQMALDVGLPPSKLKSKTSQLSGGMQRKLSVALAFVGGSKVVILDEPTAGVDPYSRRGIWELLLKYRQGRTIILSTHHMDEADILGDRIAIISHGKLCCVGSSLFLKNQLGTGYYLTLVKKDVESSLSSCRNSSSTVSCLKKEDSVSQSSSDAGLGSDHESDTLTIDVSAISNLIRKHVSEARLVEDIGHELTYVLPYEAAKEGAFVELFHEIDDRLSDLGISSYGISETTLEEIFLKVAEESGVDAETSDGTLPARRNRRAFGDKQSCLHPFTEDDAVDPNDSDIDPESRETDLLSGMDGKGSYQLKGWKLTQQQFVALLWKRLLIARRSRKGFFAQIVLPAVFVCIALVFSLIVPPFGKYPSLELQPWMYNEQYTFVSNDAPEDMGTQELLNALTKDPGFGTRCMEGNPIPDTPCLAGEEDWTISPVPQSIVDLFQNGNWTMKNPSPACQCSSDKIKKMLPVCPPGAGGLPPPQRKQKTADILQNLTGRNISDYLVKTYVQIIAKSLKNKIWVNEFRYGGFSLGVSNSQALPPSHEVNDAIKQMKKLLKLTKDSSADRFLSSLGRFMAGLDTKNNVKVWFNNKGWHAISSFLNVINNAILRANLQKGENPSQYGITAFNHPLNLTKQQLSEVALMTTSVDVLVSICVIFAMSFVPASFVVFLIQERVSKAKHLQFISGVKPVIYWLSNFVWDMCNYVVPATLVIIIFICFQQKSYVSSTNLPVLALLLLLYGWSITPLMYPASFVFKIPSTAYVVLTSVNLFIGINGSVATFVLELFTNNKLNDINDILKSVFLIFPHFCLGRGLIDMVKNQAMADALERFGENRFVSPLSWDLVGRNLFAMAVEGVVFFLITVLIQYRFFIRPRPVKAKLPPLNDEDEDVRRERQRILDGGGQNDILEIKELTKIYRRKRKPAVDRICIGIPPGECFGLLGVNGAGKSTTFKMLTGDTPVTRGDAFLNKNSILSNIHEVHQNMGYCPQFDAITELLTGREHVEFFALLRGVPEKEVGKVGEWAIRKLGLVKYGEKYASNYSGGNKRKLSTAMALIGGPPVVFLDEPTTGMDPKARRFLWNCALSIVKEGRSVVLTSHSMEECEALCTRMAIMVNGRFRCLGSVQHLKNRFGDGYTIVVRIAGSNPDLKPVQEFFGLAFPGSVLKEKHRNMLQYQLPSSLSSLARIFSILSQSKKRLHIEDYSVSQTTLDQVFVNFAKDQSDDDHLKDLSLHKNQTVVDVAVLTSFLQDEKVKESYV

In the case of “ATI-5261: HDL mimetic peptide, parent peptide with phenylalanine and arginine residues; toxic at high doses; used as positive control (EVRSKLEEWFAAFREFAEEFLARLKS)”, in the series with ABCA1, the “ABCA1-dependent cholesterol efflux activity” value is recorded as “stimulated an overall greater efflux response; also recorded: stimulated a greater efflux response”. The “plasma triglycerides and unesterified cholesterol” value with Wistar rats (IV) is “increased plasma triglycerides and cholesterol”. In the series on Wistar rats (IV 3, 30, 300 mg/kg at 48 h intervals, 4 injections), the “cytotoxic response (plasma ALT, AST)” value is “induced a cytotoxic response”. In addition, the “capacity of treated plasma to stimulate cholesterol efflux via ABCA1” value with human plasma is listed as “possessed greater capacity to stimulate cholesterol efflux”. Moreover, the “cholesterol efflux via ABCG1” value with ABCG1 was “poorly active”.

Values taken from US11434267B2, “Peptides having reduced toxicity that stimulate cholesterol efflux” (The Regents of the University of California, priority 2013, dated 2022).
